# B1: full-length HopM1: Pst DC3000 type III effector, 712-aa virulence protein (SEQ ID NO:34) (protein)
# chain: MISSRIGGAGGVELSRVNQQHDTVPAQTAHPNAVTAGMNPPLTPDQSGSHATESSSAGAARLNVAARHTQLLQAFKAEHGTAPVSGAPMISSRAALLIGSLLQAEPLPFEVMAEKLSPERYQLKQFQGSDLQQRLEKFAQPGQIPDKAEVGQLIKGFAQSVADQLEHFQLMHDASPATVGQHAKADKATLAVSQTALGEYAGRASKAIGEGLSNSIASLDEHISALDLTLQDAEQGNKESLHADRQALVDAKTTLVGLHADFVKSPEAKRLASVAAHTQLDNVVSDLVTARNTVGGWKGAGPIVAAAVPQFLSSMTHLGYVRLSTSDKLRDTIPETSSDANMLKASIIGMVAGIAHETVNSVVKPMFQAALQKTGLNERLNMVPMKAVDTNTVIPDPFELKSEHGELVKKTPEEVAQDKAFVKSERALLNQKKVQGSSTHPVGELMAYSAFGGSQAVRQMLNDVHQINGQTLSARALASGFGGAVSASSQTLLQLKSNYVDPQGRKIPVFTPDRAESDLKKDLLKGMDLREPSVRTTFYSKALSGIQSSALTSALPPVTAQAEGASGTLSAGAILRNMALAATGSVSYLSTLYTNQSVTAEAKALKAAGMGGATPMLDRTETALNNIRHPNRESLPHTFQKSTLSGIPRVAENAYHMGRGALQLPTQMAVDTVRVVDEGVLNAVASAREALKQPTKDDDALRALEEGLLDPR
# modifications: 6xHis tag; Pseudomonas syringae pv. tomato str. DC3000
# Tests used:
# [1] = system: AtMIN2, AtMIN7, and AtMIN 10; test: Immunoblot of AtMIN-HA proteins transiently co-expressed with HopM1 in N. benthamiana leaves; assay type: cell-based, Arabidopsis thaliana; settings: DEX-induced expression in N. benthamiana leaves
# Procedure: Oligonucleotide primers used for amplifying hopMl and AtMIN genes from Pst DC3000 genomic DNA or Arabidopsis total cDNA, as applicable, used for creating these expression vectors are shown in FIG. 14. Two days after leaf infiltration, 0.3 μM DEX was applied to induce the expression of HopM11-712, or HopM11-300 or HopM11-712. Three hours after DEX treatment, leaf discs were taken for subsequent analyses using immunoblotting or co-immunoprecipitation experiments (see, EXAMPLES herein for procedures).
# Plant cells expressing 6×His-HopM1 and AtMIN-HA proteins in N. benthamiana leaves were engineered to co-express a second transiently expressed protein, either full-length 6×His-HopM1 or 6×His-HopM11-300. […] Specifically, AtMIN7-HA was pulled down with HopM11-300, but not with 6×His-HopM1301-712. Please note that membrane associated AtMIN 10-HA was preferably eliminated during bacterial infection. Arrows indicate lanes in which DEX-induced expression of full-length HopM1 destabilized AtMIN2, AtMIN7, and AtMIN 10 (FIG. 6B).
# Expression Plasmids for Nicotiana cells: For transient expression studies in Nicotiana benthamiana; expression plasmids were engineered to express C-terminal HA epitope-tagged AtMIN proteins using a constitutive CaMV 35S promoter operably linked to AtMIN sequences. […]
# [2] = system: Arabidopsis Y2H cDNA library; test: Yeast two-hybrid (Y2H) screening with HopM1 baits; assay type: binding; settings: protein used as bait
# Text: A LexA-based yeast two-hybrid system was used for screening an Arabidopsis Y2H cDNA library using full-length HopM1 and the dominant-negative domain of HopM1 (HopM11-300) as bait, in separate screenings. This system was based upon a pGilda Lex A expression vector (CLONTECHniques, OCTOBER 1999 p. 26-27, Clontech Laboratories Inc.; herein incorporated by reference in its entirety) for expressing HopM1 proteins in combination with a lacZ reporter gene on a separate plasmid that autonomously replicated in yeast (CLONTECHniques, OCTOBER 1999 p. 26-27, Clontech Laboratories Inc.; herein incorporated by reference in its entirety), see below for addition information (see, MATCHMAKER LexA Two-Hybrid System Catalog #K1609-1 and MATCHMAKER LexA Libraries User Manual (PT3040-1) Version It PR67300 and (Yeast Protocols Handbook, Protocol # PT3024-1 Version # PR13103, published 14 Mar. 2001; herein incorporated by reference in its entirety).
# hopM1 DNA fragments were amplified by PCR using the primers listed below and standard PCR procedures then fragments were isolated and cloned into a bait vector pGilda Lex A (resistance to ampicillin (100 μg/ml) to E. coli hosts; Protocol # PT3147-5; Version # PR81829; Clontech Laboratories, Inc.; herein incorporated by reference in its entirety). […]
# AtMIN7 = test: Detection of polyubiquitinated AtMIN7 in planta; assay type: cell-based, Arabidopsis thaliana; settings: MG132-treated N. benthamiana leaves
# Text: Left: AtMIN7:HA and 6×His:HopM1-300, 6×His:HopM301-712 or 6×His:HopM1-712 were transiently co-expressed in MG132-treated N. benthamiana leaves. Ubiquitinated proteins were detected by western blot (WB) with a polyclonal ubiquitin (Ub) antibody (Sigma Co.). Right: AtMIN7:HA and 6×His:HopM1-712 were transiently co-expressed in 1% DMSO (−)- or MG132-treated N. benthamiana leaves. AtMIN7 was immunoprecipitated (IP) using a polyclonal AtMIN7 antibody. Ubiquitinated AtMIN7 protein was detected by western blot (WB) with a polyclonal ubiquitin (Ub) antibody (Sigma Co.). See Materials and Methods for transient expression and immunoprecipitation of AtMIN7 and HopM1 in N. benthamiana leaves.
molecule,measurement,setting,value
B1,"destabilization of AtMIN2, AtMIN7 and AtMIN10",[1],destabilized
same,interactors recovered in Y2H screen,[2],failed to recover target interactor host proteins
same,polyubiquitination of AtMIN7,AtMIN7,enhanced
